Assay results taken from publication PMC5389471 (Nucleic Acids Research, 2016).

Key:
AibR [1] = molecular target: T1, AibR (Myxococcus xanthus, UniProt Q1D4I5); test: MST Kd with Cy5-labelled AibR; assay type: binding
T1 sequence (Q1D4I5 1-228): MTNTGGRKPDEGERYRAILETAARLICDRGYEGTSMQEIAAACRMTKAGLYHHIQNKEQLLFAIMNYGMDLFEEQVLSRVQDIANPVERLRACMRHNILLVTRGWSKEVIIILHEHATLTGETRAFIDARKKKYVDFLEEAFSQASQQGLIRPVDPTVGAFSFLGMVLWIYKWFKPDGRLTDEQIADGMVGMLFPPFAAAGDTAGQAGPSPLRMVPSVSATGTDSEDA

[2] = molecular target: AibR, TetR-like transcriptional regulator of the AIB-operon (Myxococcus xanthus); test: crystal structure
[3] = molecular target: AibR, TetR-like transcriptional regulator of the AIB-operon (Myxococcus xanthus); test: SEC
AibR [4] = molecular target: T2, AibR (UniProt Q1D4I5 1-228); test: EMSA
T2 sequence: T1 sequence (Q1D4I5 1-228)

AibR [5] = molecular target: T2, AibR; test: MST
AibR [6] = molecular target: T2, AibR; test: crystal structure

CC(C)=CC(=O)SCCNC(=O)CCNC(=O)[C@H](O)C(C)(C)COP(=O)(O)OP(=O)(O)OC[C@H]1O[C@@H](n2cnc3c(N)ncnc32)[C@H](O)[C@@H]1OP(=O)(O)O [3,3-dimethylacrylyl coenzyme A]
Kd (AibR [1]): 5.8 ± 1.51 µM

AibR, TetR-like transcriptional regulator of the AIB-operon (natural protein)
stoichiometry N [2]: 2
stoichiometry N [3]: 2

B1: aibR-Cy5 40 bp (dsDNA)
DNA 1: CCGCGTCGGGCGCTGCTACCTACCGGTCGGTAGGTCTCCA
DNA 2: TGGAGACCTACCGACCGGTAGGTAGCAGCGCCCGACGCGG
Kd (AibR [4]): 0.233 ± 0.02 µM

B2: Cy5 21 bp operator (dsDNA)
DNA 1: GCTACCTACCGGTCGGTAGGT
DNA 2: ACCTACCGACCGGTAGGTAGC
Kd (AibR [5]): 2.3 ± 0.85 µM

B3: P3791 (dsDNA)
DNA 1: CCCCTGCCCAACCTACCGGTCGGACGGTTCCTAGCGGG
DNA 2: TCATCCGCGCCACCCGCTAGGAACCGTCCGACCGGTAGGTTGGGCAGGGG
binding result (AibR [4]): binds

B4: aibR8 (dsDNA)
DNA 1: B1 DNA 1
DNA 2: TCATCCGCGCCATGGAGACCTACCGACCGGTAGGTAGCAGCGCCCGACGCGG
binding result (AibR [4]): binds

B5: 3aibR12 (G12T) (dsDNA)
DNA 1: CGCTGCTACCTACCGGTCTGTAGGTCTCCA
DNA 2: TCATCCGCGCCATGGAGACCTACAGACCGGTAGGTAGCAGCG
binding result (AibR [4]): no binding

B6: 16-bp palindrome (nt 2-17, G9A) (dsDNA)
DNA 1: CCTACCGATCGGTAGG
DNA 2: CCTACCGATCGGTAGG
binding result (AibR [6]): binds
